Measured values published in patent US20160369006A1 (published 2016).

Target: WT1 peptide … presented by HLA-A0201 (human;)
Assay: 125I-labeled antibody saturation cell binding; JMN cells

Kd: 0.2 nM
B1: ESK1 wildtype IgG1 (antibody, V domains shown)
VH: QMQLVQSGAEVKEPGESLRISCKGSGYSFTNFWISWVRQMPGKGLEWMGRVDPGYSYSTYSPSFQGHVTISADKSTSTAYLQWNSLKASDTAMYYCARVQYSGYYDWFDPWGQGTLVTVSS
VL: not shown
